Intracellular cAMP in human fibroblast-like synoviocytes data for one substance are collected here from patent publication US20240024505A1.

For this assay, the target named is mRXFP1 (UniProt Q9HBX9). Description: cell-based or functional assay.
mRXFP1, sequence (Q9HBX9 whole entry): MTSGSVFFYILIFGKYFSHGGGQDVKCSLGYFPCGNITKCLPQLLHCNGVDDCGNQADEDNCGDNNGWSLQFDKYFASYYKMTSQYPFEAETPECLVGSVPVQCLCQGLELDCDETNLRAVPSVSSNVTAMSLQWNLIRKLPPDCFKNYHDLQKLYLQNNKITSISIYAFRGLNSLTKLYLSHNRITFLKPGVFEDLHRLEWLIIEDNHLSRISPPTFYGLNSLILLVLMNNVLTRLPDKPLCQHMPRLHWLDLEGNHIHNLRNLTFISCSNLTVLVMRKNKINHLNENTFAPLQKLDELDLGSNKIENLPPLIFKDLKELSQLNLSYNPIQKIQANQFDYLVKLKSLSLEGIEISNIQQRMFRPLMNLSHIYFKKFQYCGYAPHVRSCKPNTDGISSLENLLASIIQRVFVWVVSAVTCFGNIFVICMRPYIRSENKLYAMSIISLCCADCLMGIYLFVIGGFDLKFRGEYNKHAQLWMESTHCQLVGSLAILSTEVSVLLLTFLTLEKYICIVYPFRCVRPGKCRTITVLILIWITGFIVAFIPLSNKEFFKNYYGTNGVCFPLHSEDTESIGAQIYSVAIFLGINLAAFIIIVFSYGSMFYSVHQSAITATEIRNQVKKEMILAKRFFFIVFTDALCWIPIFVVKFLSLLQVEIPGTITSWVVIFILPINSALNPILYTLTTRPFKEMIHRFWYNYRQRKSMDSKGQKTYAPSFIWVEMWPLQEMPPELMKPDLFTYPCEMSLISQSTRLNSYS

Take “recombinant RLX (serelaxin) (from UniProt P04090 25-53; P04090 162-185) (ligand)”: the intracellular cAMP in human fibroblast-like synoviocytes is above 15 fold.
